Molecular target: T1, recombinant 6His-Sp17 protein (human, UniProt Q15506 1-151, limits assumed)
T1 construct: The species is not restated for this recombinant protein; not shown: 6His tag
T1 sequence (looked up): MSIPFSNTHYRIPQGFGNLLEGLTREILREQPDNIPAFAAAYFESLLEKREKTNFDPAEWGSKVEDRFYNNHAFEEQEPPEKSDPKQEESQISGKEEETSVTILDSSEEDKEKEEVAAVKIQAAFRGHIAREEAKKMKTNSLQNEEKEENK
Experiment: SPR (Biacore T200), 6His-Sp17 at 6.25-300 nM as analyte
Source text: The lines correspond, from highest to lowest, to fitted cycles for 300 nanomolar, 100 nanomolar, 50 nanomolar, 25 nanomolar, 12.5 nanomolar, and 6.25 nanomolar concentrations of 6His-Sp17.
The nucleotide sequences encoding the VH and VL regions of Example 1 were cloned into a mouse IgG2a heavy chain gene and a mouse kappa light chain gene, respectively, and expressed in CHO—S cells to produce a mouse-human chimeric antibody, which was named chAB2. Successful generation of the antibody was confirmed by SDS-PAGE and western blotting using anti-mouse heavy and light chain antibodies and recombinant Sp17 protein (FIGS. 2 & 3). The chAB2 antibody was reactive to mouse surface Sp17 protein expressed on the mouse ovarian cancer cell line ID8 (FIG. 4).

B1: mouse-human chimeric anti-Sp17 IgG2a/kappa monoclonal antibody chAB2 (antibody, V domains shown)
VH: QVQLQQSGAEVKKPGSSVKVSCKASGGTFSSYAISWVRQAPGQGLEWMGRIIPILGIANYAQKFQGRVTITADKSTSTAYMELSSLRSEDTAVYYCARPSEEVVAAYGAFDIWGQGTTVTVSS
VL: EIVLTQSPLSLPVRPGEPASISCRASQSLLRSDGFNYLDWYLQKPGQSPQLLVYLGSNRASGVPDRFSGSGSGTDFTLKISRVEAEDVGVYYCMQAVQTPYIFGQGTKLEIK
notes: also called anti-Sp17 antibody chAB2; chimeric monoclonal antibody (chAB2); not shown: mouse IgG2a heavy chain constant region; mouse kappa light chain constant region
Question: Which results are given for B1?
Answer: Kd: 2.07 nM; koff: 0.00013 s⁻¹; kon: 62600 M⁻¹ s⁻¹
